Test results: publication PMC6863848, “Selection of an optimal macrocyclic chelator improves the imaging of prostate cancer using cobalt-labeled GRPR antagonist RM26” (Scientific Reports, 2019)

Columns and labels:
[1] = Ex vivo biodistribution and tumor targeting; settings: female, BALB/c nu/nu, mouse, iv, 45 pmol per mouse, total radioactivity
Experimental: (§1) Euthanasia was performed by intraperitoneal injection of Ketalar-Rompun solution (10 mg/mL Ketalar and 1 mg/mL Rompun; 20 µL/g body weight) and all efforts were made to minimize suffering. Groups of 4 mice per data point were used.
(§2) Blood samples were collected by heart puncture. Lung, liver, spleen, pancreas, stomach, small intestines, kidneys, muscle, bone, and the rest of gastrointestinal tract with its content were collected, weighed and measured in a gamma-counter. The organ uptake values were expressed as a percentage of injected dose per gram of tissue weight (%ID/g) with the exception of gastrointestinal tract and the remaining carcass, which were calculated as %ID per whole sample.
(§3) The biodistribution and targeting properties of ^57Co-X-PEG2-RM26 were evaluated in female BALB/c nu/nu mice (weight: 18 ± 2 g). GRPR-expressing xenografts were established by subcutaneous injection of 8 × 10^6 PC-3 cells/mouse, 2 weeks prior to the experiment. At the time of experiment, the mice were intravenously injected with ^57Co-X-PEG2-RM26 (25 kBq, 45 pmol in 100 µL PBS per mouse) and were euthanized 3 and 24 h pi.

[2] = system: PC-3 xenografted BALB/c nu/nu mice; experiment: Ex vivo biodistribution and tumor targeting; settings: 24 h pi
Experimental: as §1, §2, §3

[3] = in vivo; settings: female, BALB/c nu/nu, mouse, iv, 45 pmol per mouse, total radioactivity
Experimental: as §1, §2, §3

[4] = system: NMRI mice; settings: 25 kBq, 3 and 24 h pi
Experimental: as §2

[5] = blood, Blood uptake, PC-3-xenografted BALB/c nu/nu mice, iv 25 kBq/45 pmol, 3 h pi, 4 mice per data point
[6] = blood, Blood uptake, PC-3-xenografted BALB/c nu/nu mice, iv 25 kBq/45 pmol, 24 h pi, 4 mice per data point
[7] = bone, Bone uptake, PC-3-xenografted BALB/c nu/nu mice, iv 25 kBq/45 pmol, 3 h pi, 4 mice per data point
[8] = bone, Bone uptake, PC-3-xenografted BALB/c nu/nu mice, iv 25 kBq/45 pmol, 24 h pi, 4 mice per data point
[9] = gastrointestinal tract with content (whole sample)
[10] = kidneys, Kidneys uptake, PC-3-xenografted BALB/c nu/nu mice, iv 25 kBq/45 pmol, 3 h pi, 4 mice per data point
[11] = liver, Liver uptake, PC-3-xenografted BALB/c nu/nu mice, iv 25 kBq/45 pmol, 3 h pi, 4 mice per data point
[12] = liver, Liver uptake, PC-3-xenografted BALB/c nu/nu mice, iv 25 kBq/45 pmol, 24 h pi, 4 mice per data point
[13] = lung, Lung uptake, PC-3-xenografted BALB/c nu/nu mice, iv 25 kBq/45 pmol, 3 h pi, 4 mice per data point
[14] = lung, Lung uptake, PC-3-xenografted BALB/c nu/nu mice, iv 25 kBq/45 pmol, 24 h pi, 4 mice per data point
[15] = muscle, Muscle uptake, PC-3-xenografted BALB/c nu/nu mice, iv 25 kBq/45 pmol, 24 h pi, 4 mice per data point
[16] = pancreas, Pancreas uptake, PC-3-xenografted BALB/c nu/nu mice, iv 25 kBq/45 pmol, 3 h pi, 4 mice per data point
[17] = pancreas, Pancreas uptake, PC-3-xenografted BALB/c nu/nu mice, iv 25 kBq/45 pmol, 24 h pi, 4 mice per data point
[18] = remaining carcass (whole sample)
[19] = small intestine, Sm. Int. uptake, PC-3-xenografted BALB/c nu/nu mice, iv 25 kBq/45 pmol, 3 h pi, 4 mice per data point
[20] = small intestine, Sm. Int. uptake, PC-3-xenografted BALB/c nu/nu mice, iv 25 kBq/45 pmol, 24 h pi, 4 mice per data point
[21] = spleen, Spleen uptake, PC-3-xenografted BALB/c nu/nu mice, iv 25 kBq/45 pmol, 3 h pi, 4 mice per data point
[22] = spleen, Spleen uptake, PC-3-xenografted BALB/c nu/nu mice, iv 25 kBq/45 pmol, 24 h pi, 4 mice per data point
[23] = stomach, Stomach uptake, PC-3-xenografted BALB/c nu/nu mice, iv 25 kBq/45 pmol, 3 h pi, 4 mice per data point
[24] = stomach, Stomach uptake, PC-3-xenografted BALB/c nu/nu mice, iv 25 kBq/45 pmol, 24 h pi, 4 mice per data point
[25] = tumor, Tumor uptake, PC-3-xenografted BALB/c nu/nu mice, iv 25 kBq/45 pmol, 3 h pi, 4 mice per data point
[26] = tumor, Tumor uptake, PC-3-xenografted BALB/c nu/nu mice, iv 25 kBq/45 pmol, 24 h pi, 4 mice per data point
[27] = kidneys, Kidneys uptake, PC-3-xenografted BALB/c nu/nu mice, iv 25 kBq/45 pmol, 24 h pi, 4 mice per data point
[28] = muscle, Muscle uptake, PC-3-xenografted BALB/c nu/nu mice, iv 25 kBq/45 pmol, 3 h pi, 4 mice per data point

Row | Compound | tissue uptake at 3 h [1, 5] | tissue uptake at 24 h [1, 6] | tissue uptake at 3 h [1, 7] | tissue uptake at 24 h [1, 8] | tissue uptake dose at 3 h [1, 9] | tissue uptake dose at 24 h [1, 9] | tissue uptake at 3 h [1, 10] | tissue uptake at 3 h [1, 11] | tissue uptake at 24 h [1, 12] | tissue uptake at 3 h [1, 13] | tissue uptake at 24 h [1, 14] | tissue uptake at 24 h [1, 15] | tissue uptake at 24 h [1, 17] | tissue uptake dose at 3 h [1, 18] | tissue uptake dose at 24 h [1, 18] | tissue uptake at 3 h [1, 19] | tissue uptake at 24 h [1, 22] | tissue uptake at 3 h [1, 23] | tissue uptake at 3 h [1, 25] | tissue uptake at 24 h [1, 26] | also measured
1 | CC(C)C[C@H](NC(=O)C[C@H](O)[C@H](CC(C)C)NC(=O)[C@H](Cc1c[nH]cn1)NC(=O)CNC(=O)[C@@H](NC(=O)[C@H](C)NC(=O)[C@H](Cc1c[nH]c2ccccc12)NC(=O)[C@H](CCC(N)=O)NC(=O)[C@@H](Cc1ccccc1)NC(=O)COCCOCCNC(=O)CN1CCN(CC(=O)O)CCN(CC(=O)O)CCN(CC(=O)O)CC1)C(C)C)C(N)=O [DOTA] | 0.028 ± 0.006 %ID/g | 0.007 ± 0.002 %ID/g | 0.08 ± 0.03 %ID/g | 0.09 ± 0.06 %ID/g | 4.8 ± 0.1 %ID | 0.21 ± 0.09 %ID | 1.9 ± 0.3 %ID/g | 0.078 ± 0.009 %ID/g | 0.034 ± 0.003 %ID/g | 0.06 ± 0.01 %ID/g | 0.023 ± 0.004 %ID/g | 0.02 ± 0.01 %ID/g | 0.05 ± 0.01 %ID/g | 0.9 ± 0.4 %ID | 0.2 ± 0.1 %ID | 0.9 ± 0.1 %ID/g | 0.035 ± 0.006 %ID/g | 2.1 ± 0.6 %ID/g | 8.1 ± 0.6 %ID/g | 4.4 ± 1.3 %ID/g | tissue uptake dose at 3 h ([1]; gastrointestinal tract with contents): 5 %ID; tissue uptake at 24 h ([1]; kidneys): 0.8 ± 0.2 %ID/g; tissue uptake at 3 h ([1]; muscle): 0.4 ± 0.7 %ID/g; tissue uptake at 3 h [1, 16]: 2.5 ± 0.8 %ID/g; tissue uptake at 24 h [1, 20]: 0.06 ± 0.02 %ID/g; tissue uptake at 3 h [1, 21]: 0.09 ± 0.02 %ID/g; tissue uptake at 24 h [1, 24]: 0.06 ± 0.02 %ID/g; Tumor radioactivity, higher than other conjugates [2]: twofold higher
2 | CC(C)C[C@H](NC(=O)C[C@H](O)[C@H](CC(C)C)NC(=O)[C@H](Cc1c[nH]cn1)NC(=O)CNC(=O)[C@@H](NC(=O)[C@H](C)NC(=O)[C@H](Cc1c[nH]c2ccccc12)NC(=O)[C@H](CCC(N)=O)NC(=O)[C@@H](Cc1ccccc1)NC(=O)COCCOCCNC(=O)CCC(C(=O)O)N1CCN(CC(=O)O)CCN(CC(=O)O)CCN(CC(=O)O)CC1)C(C)C)C(N)=O (stereo partly drawn) [DOTAGA] | 0.02 ± 0.01 %ID/g | 0.005 ± 0.002 %ID/g | 0.02 ± 0.005 %ID/g | 0.02 ± 0.03 %ID/g | 1 ± 0.5 %ID | 0.1 ± 0.1 %ID | 3.5 ± 0.4 %ID/g | 0.08 ± 0.02 %ID/g | 0.04 ± 0.01 %ID/g | 0.07 ± 0.03 %ID/g | 0.02 ± 0.02 %ID/g | 0.007 ± 0.007 %ID/g | 0.028 ± 0.009 %ID/g | 1.9 ± 0.9 %ID | 0.3 ± 0.3 %ID | 0.13 ± 0.05 %ID/g | 0.016 ± 0.009 %ID/g | 0.4 ± 0.3 %ID/g | 6.9 ± 2.7 %ID/g | 2.3 ± 0.7 %ID/g | tissue uptake at 24 h [1, 27]: 1.8 ± 0.5 %ID/g; tissue uptake at 3 h [1, 28]: 0.04 ± 0.01 %ID/g; tissue uptake at 3 h [1, 16]: 0.4 ± 0.1 %ID/g; tissue uptake at 24 h [1, 20]: 0.02 ± 0.01 %ID/g; tissue uptake at 3 h [1, 21]: 0.08 ± 0.05 %ID/g; tissue uptake at 24 h [1, 24]: 0.018 ± 0.004 %ID/g; Kidney uptake, higher compared to NODAGA- and DOTA-containing analogues [2]: twofold higher
3 | CC(C)C[C@H](NC(=O)C[C@H](O)[C@H](CC(C)C)NC(=O)[C@H](Cc1c[nH]cn1)NC(=O)CNC(=O)[C@@H](NC(=O)[C@H](C)NC(=O)[C@H](Cc1c[nH]c2ccccc12)NC(=O)[C@H](CCC(N)=O)NC(=O)[C@@H](Cc1ccccc1)NC(=O)COCCOCCNC(=O)CN1CCN(CC(=O)O)CCN(CC(=O)O)CC1)C(C)C)C(N)=O [NOTA] | 0.019 ± 0.004 %ID/g | 0.006 ± 0.001 %ID/g | 0.04 ± 0.04 %ID/g |  | 0.6 ± 0.1 %ID | 0.09 ± 0.03 %ID | 0.93 ± 0.05 %ID/g |  | 0.025 ± 0.005 %ID/g | 0.065 ± 0.005 %ID/g | 0.09 ± 0.15 %ID/g | 0.011 ± 0.005 %ID/g | 0.023 ± 0.002 %ID/g | 0.6 ± 0.4 %ID | 0.18 ± 0.06 %ID | 0.098 ± 0.028 %ID/g | 0.029 ± 0.004 %ID/g | 0.3 ± 0.1 %ID/g | 7.3 ± 1.3 %ID/g | 2.1 ± 0.2 %ID/g | tissue uptake at 3 h [1, 28]: 0.08 ± 0.1 %ID/g; tissue uptake at 24 h ([3]; Bone uptake): 0.08 ± 0.05 %ID/g; tissue uptake at 24 h ([3]; Kidneys uptake): 0.09 ± 0.03 %ID/g; tissue uptake at 3 h ([3]; Liver uptake): 0.07 ± 0.004 %ID/g; tissue uptake at 3 h ([3]; Pancreas uptake): 0.21 ± 0.052 %ID/g; tissue uptake at 24 h ([3]; Sm. Int. uptake): 0.06 ± 0.03 %ID/g; tissue uptake at 3 h ([3]; Spleen uptake): 0.05 ± 0.008 %ID/g; tissue uptake at 24 h ([3]; Stomach uptake): 0.05 ± 0.03 %ID/g
4 | CC(C)C[C@H](NC(=O)C[C@H](O)[C@H](CC(C)C)NC(=O)[C@H](Cc1c[nH]cn1)NC(=O)CNC(=O)[C@@H](NC(=O)[C@H](C)NC(=O)[C@H](Cc1c[nH]c2ccccc12)NC(=O)[C@H](CCC(N)=O)NC(=O)[C@@H](Cc1ccccc1)NC(=O)COCCOCCNC(=O)CCC(C(=O)O)N1CCN(CC(=O)O)CCN(CC(=O)O)CC1)C(C)C)C(N)=O (stereo partly drawn) [NODAGA] | 0.032 ± 0.009 %ID/g | 0.006 ± 0.003 %ID/g | 0.1 ± 0.2 %ID/g | 0.007 ± 0.002 %ID/g | 5 ± 1 %ID | 0.3 ± 0.2 %ID | 2.5 ± 0.8 %ID/g | 0.08 ± 0.02 %ID/g | 0.02 ± 0.01 %ID/g | 0.05 ± 0.01 %ID/g | 0.02 ± 0.01 %ID/g | 0.006 ± 0.005 %ID/g | 0.02 ± 0.03 %ID/g | 1.3 ± 0.3 %ID | 0.1 ± 0.1 %ID | 0.3 ± 0.3 %ID/g | 0.009 ± 0.002 %ID/g | 0.39 ± 0.09 %ID/g | 6.3 ± 1.2 %ID/g | 2.3 ± 0.9 %ID/g | tissue uptake at 24 h [1, 27]: 0.7 ± 0.4 %ID/g; tissue uptake at 3 h [1, 28]: 0.02 ± 0.01 %ID/g; tissue uptake at 3 h [1, 16]: 0.3 ± 0.2 %ID/g; tissue uptake at 24 h [1, 20]: 0.015 ± 0.007 %ID/g; tissue uptake at 3 h [1, 21]: 0.05 ± 0.02 %ID/g; tissue uptake at 24 h [1, 24]: 0.04 ± 0.01 %ID/g
5 | [57Co+2].[Cl-].[Cl-] [free cobalt, cobalt-57 chloride] |  |  |  |  |  |  |  |  |  |  |  |  |  |  |  |  |  |  |  |  | Biodistribution pattern [4]: Uniform activity distribution
